Measured values: the DeepSol protein solubility set

Assay: soluble on expression in E. coli; label from the status in PepcDB or PDB records

Row | Sequence | soluble on expression in E. coli
1 | MSLGEWKDELIHNADKFDFPIFTPYYELTDEQRRTLWEGNQYFHGINDFFKMLEENQYKIQYRVMLARYRGKTICPKCHGTRLKPEAGYVRVDGKSISELVDLPITELKEFFDHLNLNEHDSNVARRILIEINSRIRFLIDVGLGYLTLNRLSNSLSGGESQRINLATSLGSSLVGSLYILDEPSIGLHSRDTDRLIRVLRQLQELGNTVVVVEHDEEIIRAADYIIDIGPNAGRLGGEVVYQGDMKDLKKGSNSHTVRYLLGEEEIPVPEHRRPWNNYIELTGARENNLKGVNVKFPLNVMTVVTGVSGSGKSTLVRDIFYRALKRELDECSDRPGEFSSISGSLRDLRNIEFVDQNPIGKSSRSNPVTYIKAYDEIRKLWAEQPLAKQMGYTAGHFSFNSEGGRCEECKGEGTITVEMQFMADLVLECESCHGKRFKADTLEVKFQDKNIYDVLEMTVNQAVEFFTEHGQKKIVKRLLPLQDVGLGYIKLGQSSSTLSGGENQRVKLAFYLSQEKADPTLFIFDEPTTGLHFHDIRKLLDAFDALIRRGHSIVIIEHNMDVIKCADYVIDLGPEGGDKGGNIVAVGTPEEVAACGASYTGQFLKEKLAEGHHHHHH | not soluble
2 | MGSSHHHHHHSSGLVPRGSHMDRKTEFIECTNAFNEKPKKGIPMLIEKGFIASDSDKDIAEFLFNNNNRMNKKTIGLLLCHPDKVSLLNEYIRLFDFSGLRVDEAIRILLTKFRLPGESQQIERIIEAFSSAYCENQDYDPSKISDNAEDDISTVQPDADSVFILSYSIIMLNTDLHNPQVKEHMSFEDYSGNLKGCCNHKDFPFWYLDRVYCSIRDKEIVMPEEHHGNE | soluble
3 | AMADTIVAVELDSYPNTDIGDPNYPHIGIDIKSIRSKSTARWNMQTGKVGTVHISYNSVAKRLSAVVSYSGSSSTTVSYDVDLNNVLPEWVRVGLSATTGLYKETNTILSWSFTSKLKTNSIADANSLHFSFNQFSQNPKDLILQGDAFTDSDGNLQLTKVSSSGDPQGNSVGRALFYAPVHIWEKSAVVASFDATFTFLIKSPDREPADGITFFIANTDTSIPSGSGGRLLGLFPDAN | soluble
4 | MSSMTTTDNKAFLNELARLVGSSHLLTDPAKTARYRKGFRSGQGDALAVVFPGSLLELWRVLKACVTADKIILMQAANTGLTEGSTPNGNDYDRDVVIISTLRLDKLHVLGKGEQVLAYPGTTLYSLEKALKPLGREPHSVIGSSCIGASVIGGICNNSGGSLVQRGPAYTEMSLFARINEDGKLTLVNHLGIDLGETPEQILSKLDDDRIKDDDVRHDGRHAHDYDYVHRVRDIEADTPARYNADPDRLFESSGCAGKLAVFAVRLDTFEAEKNQQVFYIGTNQPEVLTEIRRHILANFENLPVAGEYMHRDIYDIAEKYGKDTFLMIDKLGTDKMPFFFNLKGRTDAMLEKVKFFRPHFTDRAMQKFGHLFPSHLPPRMKNWRDKYEHHLLLKMAGDGVGEAKSWLVDYFKQAEGDFFVCTPEEGSKAFLHRFAAAGAAIRYQAVHSDEVEDILALDIALRRNDTEWYEHLPPEIDSQLVHKLYYGHFMCYVFHQDYIVKKGVDVHALKEQMLELLQQRGAQYPAEHNVGHLYKAPETLQKFYRENDPTNSMNPGIGKTSKRKNWQEVE | soluble
5 | MAHHHHHHMNVEVTGRCFFTGDDYYISLPITNRAANRGEPRQLLCSEMIHWDDYRQERGINDGKPPMQQLFASSYAEPLVRTFALGNDTYVTQVTGVSATQAGSSSQMFSAEMLHWDDYCAARGINAGEPTMASLFRPFESKSILVFDLNERKLTEFEGNSVALISYGADRQTYCSEMEHRDDYIRAKTGQAPQPSMASLFA | not soluble
6 | SDIAIHHPWIRRPFFPFHSPSRLFDQFFGEHLLESDLFPTSTSLSPFYLRPPSFLRAPSWFDTGLSEMRLEKDRFSVNLDVKHFSPEELKVKVLGDVIEVHGKHEERQDEHGFISREFHRKYRIPADVDPLTITSSLSSDGVLTVNGPRKQVSGPERTIPITREEKPAVTAAPKK | soluble
7 | MMSLAWPLFRVTEQAALAAWPQTGCGDKNKIDGLAVTAMRQALNDVAFRGRVVIGEGEIDHAPMLWIGEEVGKGDGPEVDIAVDPIEGTRMVAMGQSNALAVMAFAPRDSLLHAPDMYMKKLVVNRLAAGAIDLSLPLTDNLRNVAKALGKPLDKLRMVTLDKPRLSAAIEEATQLGVKVFALPDGDVAASVLTCWQDNPYDVMYTIGGAPEGVISACAVKALGGDMQAELIDFCQAKGDYTENRQIAEQERKRCKAMGVDVNRVYSLDELVRGNDILFSATGVTGGELVNGIQQTANGVRTQTLLIGGADQTCNIIDSLH | soluble
8 | FNGHSLKAYPRMTFQLTIKGGNEMNYRIEEKEAFRIVGIKKRVPIIFKGINPEIASMWESLDEKAINKLKELSNVAPSGLISASTNFSEGRTEENGELDHYIGAATTKRCPDNFSRLEVPASTWAVFESIGPFPDTLQEVWGRIYSEWFPSSNYEQIEGPEILWNEHKDVTSPSFKSEIWIPITKK | not soluble
9 | MIPVFNITSNRGRLLQQISVGDIWGVGRQWANKLISRGIHTAYDLAMTNPHLLKKCFNAVLMRTAMELQGIACGGLEVLEHHHHHH | not soluble
10 | MNNQFIQRVIFDWNRIDNDSYLKGIEAFKGIEKLDFNKPITFFVGENGSGKSTLLEALAVAHGFNPEGGTKNYVFSTHDTHSELCDAIRIAKGYRKEKWGYFLRAESFYNVATQEEEYADITHPSAKYHEKSHGESFLALAQNNMNPNGLYLFDEPEAALSPQRQLTLLMQIYRCAKEGAQFIIVTHSPILLGIPDADIYCFDNGCIHLCEYEDTESYQVTEMFINNRQMLLDRLLTD | not soluble
11 | MKCKKCGRKAVANLKAYGIALCEKCYPEFYRNLVKRSIKRFRILRPEERVLIAISGGKDSSALAAVLKELDYDAELLYIDLGIGNYSEESERVVRELSSSLDLSLNVVRLRDYGFTVDDVARKMRRKTCSACGTAKRYIMNRFARENSFDVVATGHTAEDIASFYIKNVAGGTRVWAEKLMPRNEPFDEKIVTRAKPLFEVSEKENMLYVLVNDIPHTLMECPHAPNPEWKEIVYDIERRKPGFVKNFVRGLVRPAEEFEETKYCKICGEVSSGDVCAFCRLRERLS | not soluble
12 | MKFIDEYRDPARARALLDRIRQVARHDWTIMEICGGQTHSILRNGIDQLLPPNVQLVHGPGCPVCVTPLETIERALAIAARPNTILTSFGDMLRVPGNSKDLFMARSEGADVRVVFSPLEALQIARDNPSKEVVFLGVGFETTAPANAMAVHQAAREGLTNFSELVSQVMVPPAMRAMLSSPGNRVQGFLAAGHVCAIMGYEEYEPVAAEFGVPIVPAGFEPVDLLDAILKTVELLEAGRSGVVNAYGRVVSREGNPEARRVMQEVFEVADRPWRGIGVIPASGLVLRPEYKRFDAEKRFDVGHIAPQESPLCRSGEVLQGHLKPSDCPAFGKECTPQTPFGATMVSSEGACAAYYRYHRNSNT | soluble
13 | MTGAATAAENSATQLEFYRKALNFNVIGRYDPKIKQLLFHTPHASLYKWDFKKDEWNKLEYQGVLAIYLRDVSQNTNLLPVSPQEVDIFDSQNGSNNIQVNNGSDNSNRNSSGNGNSYKSNDSLTYNCGKTLSGKDIYNYGLIILNRINPDNFSMGIVPNSVVNKRKVFNAEEDTLNPLECMGVEVKDELVIIKNLKHEVYGIWIHTVSDRQNIYELIKYLLENEPKDSFA | soluble
14 | SKIADPAFLRRLGYKIEFKPLSLTDYQALWMSLAKDYQMTLVPEFFETLSQLHRDNDVAYFPCLPKDLLGISRDILVFEGKEKIVSSDILTRAWGLYFTVDE | soluble
15 | MTQDTQLTFEARDEFNRKSIAEKVITLLRSDITVSPLVIDGSWGLGKTEFCQKLLSLMSTEETHHLIYIDAFKADHADEPLLTVLAKVLEVLPSQEEQQGLIQKAIPALRYGLKTGGKALVAHILRQDTDSIINGFDEEVKQVADKAIDASVESLLKDHVEAESSLQALQQALKSIAEQKPIVLFIDELDRCRPNFSVLMLETIKHTFDVEGVQFVLITNTNQLKASINHCYGPTIDAQRYLDKFIRFSFTLPHTTNENRHDVTMASVTHYKNLVAKSERLQGLSLDRDSDFWLVAQVINTNNISLREVETLVRHIEIYQALFDDQPLSNHTQWAYRLMALLGVLLISFKPNLAKSALINNLDAKDLGNFLGVHSLPKLENNQHPTHCDTLVFMLASECKYNSDFYVPDNPQDKERWEGEANEYFRGRYNLTRNGRMSLVTGAIKGLGLSVNLEHHHHHH | not soluble
16 | MGSDKIHHHHHHMIDSSLVLDAETIRNFVKSVNDADSMDKVRAAVSSFAEELRSKSSENGISIREDVLKSILQRIASSHTTELARHYANEVYNMAFISRKLPYSDIDLSRWREYDFVITDSLWLFDKRDYRGSKLGWYWGNFVPQIPRQLILRFSRKDEWVLDPFSGSGTTLIEAKKLGRNSLGIEINEEVCKKSLEILNSIDGDGFSTAISGDSASVNLTKVMEYYGIPEFNLVIMHPPYHDIIKFTDIGGDLSNARDTKEFLSMLGKVTRNVSKYLQKGRFLALVIGDKYSNGEWIPLGFYSMQKVMDQGFRLKSTIVKNFEYTRGKASSSDLWRYRALAGGFYVFKHEYIFVFQKT | not soluble
17 | MMMFLPPEVVREIHEERVKKALENLKAIELEKELLEKVVKEEKKVSSRRRRREKETVEV | not soluble
18 | MSEEIVLKAGGKIYQGWTKIGITRSLEAMSGAFDLEMTYKFLGNDAQYKAFIEPIKQGQACTVDIGGERVITGYVDDWVPSYDESTITISVSGRDKTADLVDCSIDYPSGQFNNQTLTQIADIVCKPFGIKVIVNTDVGEPFQRIQIEQGETPHELLARLAKQRGVLLTSDTFGNLVITRASKTKAGVSLILGDNVKAARGRFSWRQRFSKFTIKAAGAAHGQWDSAGLPTVGGIKADVTDSEIGRYRPLIIVNEEVTTAEGAAKRGQWERQRSIGKSNMAEYTVTGWRIPQTGKLWNINTLVPVIDEIMGLDEEMLIASILFSEDDAGRLAVISVVRPDAMDIPAQIVKDTKLGGSTW | soluble
19 | MEDLDFPICILKMNLQCCEDFPSRVKKLLRQVKGVYAITIDPVKGLILVCGTAEPSVLIKAVAKLGQSPQLYAYEKDPATAKTRFRTLLKRYATNKTQDKPSPPAPPVTATTPVETCPAGGETFRGFGYPGPTTMMQMPAFSLPPPRGLPGWLAPPTNPRLKYEEPKVTPRKPPAPYPFDYYENLGFPPSDSLFNYFSDDNPQPCSIM | soluble
20 | MARSLLLPLQILLLSLALETAGEEAQGDKIIDGAPCARGSHPWQVALLSGNQLHCGGVLVNERWVLTAAHCKMNEYTVHLGSDTLGDRRAQRIKASKSFRHPGYSTQTHVNDLMLVKLNSQARLSSMVKKVRLPSRCEPPGTTCTVSGWGTTTSPDVTFPSDLMCVDVKLISPQDCTKVYKDLLENSMLCAGIPDSKKNACNGDSGGPLVCRGTLQGLVSWGTFPCGQPNDPGVYTQVCKFTKWINDTMKKHR | soluble
21 | GHHHHHHAIAENLYFQSAQYKGAASEAGRAMHLMKKREKQREQMEQMKQRIAEENIMKSNIDKKFSAHYDAVEAELKSSTVGLVTLNDMKAKQEALVKEREKQLAKKEQSKELQMKLEKLREKERKKEAKRKISSLSFTLEEEEEGGEEEEEAAMYEEEMEREEITTKKRKLGKNPDVDTSFLPDRDREEEENRLREELRQEWEAKQEKIKSEEIEITFSYWDGSGHRRTVKMRKGNTMQQFLQKALEILRKDFSELRSAGVEQLMYIKEDLIIPHHHSFYDFIVTKARGKSGPLFNFDVHDDVRLLSDATVEKDESHAGKVVLRSWYEKNKHIFPASRWEPYDPEKKWDKYTIR | not soluble
22 | GMSNKKLIINADDFGYTPAVTQGIIEAHKRGVVTSTTALPTSPYFLEAMESARISAPTLAIGVHLTLTLNQAKPILPREMVPSLVDEAGYFWHQSIFEEKVNLEEVYNEWDAQIISFMKSGRRPDHIDSHHNVHGKNKKLLGVALALARKYQLPLRNASRSIETKDYLELYQDVRTPDEMLYQFYDKAISTETILQLLDMVVCSEGEVFEINCHPAFIDTILQNQSGYCMPRIREVEILTSQEVKEAIEERGILLANYESLAM | soluble
